Results as given in publication doi:10.1101/2020.10.01.322594.

Biological target: Phaeodactylum tricornutum diaminopimelate decarboxylase (PtLYSA), amino acids 39-476 (Phaeodactylum tricornutum)
Test: SEC

stoichiometry N: 2
Substance: Phaeodactylum tricornutum diaminopimelate decarboxylase (PtLYSA), amino acids 39-476 (enzyme)
